T1: membrane-associated tissue factor (Innovin, Dade), P13726
T1 chain: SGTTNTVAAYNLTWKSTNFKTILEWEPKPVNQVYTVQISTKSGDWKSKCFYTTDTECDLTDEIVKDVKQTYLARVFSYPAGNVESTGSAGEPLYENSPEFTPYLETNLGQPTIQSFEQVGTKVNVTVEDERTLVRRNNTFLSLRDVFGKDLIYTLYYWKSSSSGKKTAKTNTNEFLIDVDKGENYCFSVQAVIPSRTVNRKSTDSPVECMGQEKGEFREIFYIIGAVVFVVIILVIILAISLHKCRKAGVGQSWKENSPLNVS


Key:
[1] = target: membrane-associated tissue factor (Innovin, Dade) (UniProt P13726)
[2] = target: T1, membrane-associated tissue factor …

Row | Molecule | activity in the competitive assay of Example 6 [1] | activity in the competitive assay of Example 6 [2]
1 | Factor VII mutant Q11E33I34F35 | displayed similar activity as the Q11E33F34I35 mutant | –
2 | factor VII mutant Q11E33D36 (protein) ANAFLEELRQGSLERECKEEQCSFEEAREIFEDADRTKLFWISYSDGDQCASSPCQNGGSCKDQLQSYICFCLPAFEGRNCETHKDDQLICVNENGGCEQYCSDHTGTKRSCRCHEGYSLLADGVSCTPTVEYPCGKIPILEKRNASKPQGRIVGGKVCPKGECPWQVLLLVNGAQLCGGTLINTIWVVSAAHCFDKIKNWRNLIAVLGEHDLSEHDGDEQSRRVAQVIIPSTYVPGTTNHDIALLRLHQPVVLTDHVVPLCLPERTFSERTLAFVRFSLVSGWGQLLDRGATALELMVLNVPRLMTQDCLQQSRKVGDSPNITEYMFCAGYSDGSKDSCKGDSGGPHATHYRGTWYLTGIVSWGQGCATVGHFGVYTRVSQYIEWLQKLMRSEPRPGVLLRAPFP | – | had 70% the activity of the Q11E33 mutant
3 | factor VII F5K (protein) ANAKLEELRPGSLERECKEEQCSFEEAREIFKDAERTKLFWISYSDGDQCASSPCQNGGSCKDQLQSYICFCLPAFEGRNCETHKDDQLICVNENGGCEQYCSDHTGTKRSCRCHEGYSLLADGVSCTPTVEYPCGKIPILEKRNASKPQGRIVGGKVCPKGECPWQVLLLVNGAQLCGGTLINTIWVVSAAHCFDKIKNWRNLIAVLGEHDLSEHDGDEQSRRVAQVIIPSTYVPGTTNHDIALLRLHQPVVLTDHVVPLCLPERTFSERTLAFVRFSLVSGWGQLLDRGATALELMVLNVPRLMTQDCLQQSRKVGDSPNITEYMFCAGYSDGSKDSCKGDSGGPHATHYRGTWYLTGIVSWGQGCATVGHFGVYTRVSQYIEWLQKLMRSEPRPGVLLRAPFP | – | 33% of the activity of wild type factor VII

From patent publication US7220837
